Experimental data: the nanobody polyreactivity screen of Harvey et al. (2022)

Experiment: yeast display, Sf9 membrane polyspecificity reagent, FACS + sequencing; frameworks hold sequencing errors
Summary of the method: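 Synthetic nanobody libraries on Saccharomyces cerevisiae BJ5465 were galactose-induced for 36–48 hours, stained 1 hour at 4 °C with 10% biotinylated, detergent-solubilized Sf9 membrane reagent and enriched on streptavidin microbeads. FACS then separated cells into low and high (top ~1%) gates by anti-HA (expression) and streptavidin (reagent binding) fluorescence. Genes were colony-PCR amplified, MiSeq 2 × 250 sequenced and CDR-length filtered. A clone's polyreactivity label is that of its gate of origin.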

Sequence | polyreactivity (PSR sort gate)
QVQLVESAGGLVQAGGSLRLSCAATGSTVDRNGMGWYRQAPGKERELVASISGRGGSTYYADSVKGRFTISRDHAKNTVYLQMNRLKPEDTAVYYCAVRYGFFSRYNSWGQGTQVTVSS | high polyreactivity
QVQLVESGGGLVQAGGSLRLSCAASGSTFHPNAMGWYRQAPVKERELVAAISRGGSTNYADSVKGRFTISRDNAKNTVYLQMISLKPEDSAVYYCAKDFFGISSDPVVMDYWGQGTQVTVSS | low polyreactivity
QVQLVQSGGGLVQAGGSLRLSCAASGRTFGYYAMGWYRQAPGQERELVAAITRTGGSTHYADSVKGRFTISRDNAKNTVYVQMNSLKPVDTAVYYCARDYRYTIPYDYWGQGTQVTVSS | low polyreactivity
QVQLVESGGCLVQARGSLRLSCASSGFIFQAYAIGWYRHRPGKERELVASISYSGSRTYYADSVKGRFTISRDNAKNTVYLQMNSLKPADTAVYYCAAGPRYWYPWFGRDYEYWGQGTQVTVSS | high polyreactivity
QVQLVESGGGLVQAGGSLRLSCAASGSTFRIYAMRSYRQAPGKERELGARISWNGGRTYYADSVKGRFTISRVNAKNTVYLQMNSLKPEDTAGYYCNALVPPGYDYWGQGTQVSVSS | high polyreactivity
QVQLVESGGGLVQARGSLRLSCAASGTIFSSYAMGWYRQAPGKERELVAAIRWTGGSTYYADSVKGRFTISRDNAMNTVFLEMNSLKPEDTAVYFCTAEYWIDWGYDYWGQGTQVTVSS | low polyreactivity
QVQLVESGGGLVQAGGSLRLSCADSGSIFDIYAMGWYRQAPGKERELVADISWSGGSTYYADSVKGRFTISRDNAKNTVYLQMNSLKPEDTAVYYCAADSSRRIGEDYWGQGTQVTVSS | low polyreactivity
QVQLVESGGGLVQAGGSLRLSCAASGFTVYSYPLGWYRQAPGKERELVAAITRSGGITYYADSVKGRFTISRDNAKNTVYLQMNSLKPEDTAVYYCNAYRGGLSSEHYYWGQGTQVTVSS | high polyreactivity
QVQLVESGGGLVQAGGSLRLSCAASGSIFPSYAMGWYRQAPGKERELVATISGSGTRTYYADSVKGRFTISRDNAKNTVYLQMNILKPEDTAVYYCAADPWLGTGRYDYWGQGTQVTVSS | low polyreactivity
QVQLVESGGGLVQAGGSLRLSCAASGSIFEGYAMGWYRQAPGKERELVADITSGGSTYYADSVKGRFTISRDNAKNTVYLQMNSLKPEDNAVYYCNRDYHWIELVYPDDRREYDYWGQGTQVTVSS | low polyreactivity
QVQLVESGGGLVQAGGSLRLRCAASGITFTINAMGWYRQAPGTEGELVATISINGGSTNYADSVKGRFTISRDNAKNTVYLQMNSLKPEDTAVYYCAADALGPFRFQFFYTTAYVYWGQGTQVTVSS | low polyreactivity
QVQLVESGGGLVQAGGSLRLSCAASGYTFYINTMGWYRQAPGKEREFVAAITWSGGSTYYADSVKGRFTISRDNAKNTVYLQMNSLIPEDTAVYYCAADLYVGDMDYWGQGTQVTVSS | low polyreactivity
QVQLVESGGGLVQAGGSLRLSCAASGFTFSKYAMGCSRQAPGKETELVAAISRSAGSTYYADSVKRRFTISREYAKNTVYLQMNSLKPEDTAVYYCARDNPRRPSGYNYSGQGTQVTVSS | high polyreactivity
QVQLVESGGGLVQAGGSLRLSCAASGSTFPHNAMGWYRQAPGKERELVAAISVGGGSSHYADSVKGRFTISRDNAKNNVYLQMNSLKPEDTAVYYCAKDYAYQYSFVTYDYWGQGTQVTVSS | low polyreactivity
QVQLVESGGGLVQAGGSLRLSCAASGGTFRLYAMGWYRQAPGKDRELVAAITGVGSTNYADSVKGRFTISRDNAKNTVYLQMNSLKPEDTAVYYCAAYYWSQVLIQGYYSWGQGTQVTVSS | high polyreactivity
QVQLVESGGGLVQAGGSLRLSCAASGRIFNDYAMGWYRPAPGKESELVANYADSVKGRFTISRDNAKNTVYLQMNSLKPEDTAVFYCAADFPSFPDFRPEYDYWGQGTQVTVSS | low polyreactivity
QVQLVESGGGLVQAGGSLRLSCAASGRIFYFNTMGWYRQAHGKEIELVAAITRNGGSTYYADSVKWRFTISRDNAKNTVYFQMNSLKPEDTAVYYCNARYRAAKRGKAWYRYDYWGQGTQVTVSS | high polyreactivity
QVQLQESGGGLVQAGGSLRLSCAASGSISGPHVMGWSRQAPGKEREFVAAINVGANTYYADNVKGRFTISRDNAKNTVYLRMNSLKPEDTAVYYCAAVYYGDIGHEYWGQGTQVTVSC | low polyreactivity
QVQLVESGGGLDQAGGRLRLSCAASGSTFLLYAMGWYRQAPGKERELVAAIDTGDSTNYADSVKGRFTISRDNAKNTVYLQMNSLKREDTAVYYCNADSFPALNKRGYDYWGQGTQVTVSS | low polyreactivity
QVQLVESGGGLVQAGGSLRLSCAASGRNFGPYAMGWYRQAPGKERELVAVISTRGGITNYADSVKGRFTISRDTAKNTVYVQLNSLKPEDTAVYYCAARFSYPYRIAFNYWGQGTQVTVSS | low polyreactivity
QVQLVESGGGIVQAGRSLRLRCAASGFIFRYYTMGWYRQAPGKEREFVAAITSRGGSTYYSDSVKGRFTISRDNAKNTVYLQMNSLKPEDTAVYDCATTRWGYEYWGQGSQVTVSS | high polyreactivity
QVQHVESGGGLVQAGASLRLSCAASGFTIRSYVRGWYRQAPGKEREIVAAISYRGGGTNYADSVKGRFTISRDNAKNTVYLHMNSLKPEDTAVYYCNARSGSSKSGYYYWGQGTQVTVSS | high polyreactivity

Sequence | polyreactivity (PSR sort gate)
QVHLVESGGGLVQAGGSLRLSCADSGSIFRYYAMGWYRQAPGKEREMFARISWSGVSTYYADSVKGRFTISRDNAKNTVYLQMNSLKTEDTADYYCAGVDFRGYRYDLDYWGQGTQVTVSS | high polyreactivity
QVQLVESGGGLVQAGGSLRLSCAASGFTFYWYAMGWYRQAPGKERELVAAITRSGSSTYYADSVKGRFTISRDNAKNTVYLQMNSLKPEDTAVYYCAKAYRPPGYDSWGQGTQVTVSS | high polyreactivity
QVQIVESGGGLVQAGGSLRLSCAASGRIFDGNALGWYRQAPGKERELVAAISRIGGTYYADSVKGRFTISRDNAKNTVYLQMNRLKPEDTAVYYCAADPSSVGYHVEYDYWGQGTQVTVSS | low polyreactivity
QVQLVDSGGGLVQAGGSLRLRCAASGSTFRRYAMGWYRQAPGKERELVAAISNRDGSTYYADSVKGRFTISRDNAKNTVYLQMNSLKADDTAVYYCNAYGYGDYSFLKYRFEYDYWGQGTQVTVSS | low polyreactivity
QVQLVESGGGLVQAGGSLRLSCAASGITFSYNDMGWYRPAPGKEREFVATIRGSTARTYNADSVKGRFTISRDNAKNTVYLQMNSLKPEDTAVYYGAAGKYWYGYDYWGQGTQVTVSS | high polyreactivity
QVQLVESGGGLVQAGGSLRLSCAASGRIFSLNTLGWYRQAPGKERELVAAINRGGRSYYADSVKGRFTISRDNAKITVNLQMNSLKPEDTAVYYCAAEVVRQGSYRYGYWGQGTQVTVSS | high polyreactivity
QVQLVESGGGLVQAGGSLRLNCAASGSTFARNAMGWYRQAAGKERELVAAISGSGGSTYYADSVKGRFTISRDNAKNTVYLQMNSLKPEDTAVYYCAAARRYYAYRYDYWGQGTQVTVSS | high polyreactivity
QVQLVESGGGLVQAGGSLRFSCAASGSIFDRYAMGWYRQAPGKERELVAAITYSGGSTYYADSVKGRFTISRDNAKNTVYLQMNSLKPEDTAVYYCATETYPQGRYYQSYDYWGQGTQVTVSS | low polyreactivity
QVQLVESGGGLVQAGGSLRLSCAASGSIFSYYTMGWYRQAPGTERELVAASTRGGRTSYADSVKGRFTISRDNAKNTVYLQMNSLKPEDTAVYYCAADYWYFTHQLSTYGDNYWGQGTQVTVSS | low polyreactivity
QVQLVESGGGLVQAGGRLRLSCAASGLIFTWNAMGWYRQAPGKERELVAAISTGGSTSYADSVKGRFTISRDNAMNTVYLQMNSMKPEDTAVYYCARDSSIWSHGSWYDYWGQGTQVTVSS | low polyreactivity
QVQLVESGGGLVQAGGSLRLSCAASGSTFYDYAMGWYRQAPGKERELVAAISRGGSTYYADCVKGRFTISRDNAKNTVYLQMNSLKPEDTAVYYCAAGRSYDSGFYYWGQGTQVTVSS | low polyreactivity
QVQLVESGGGLVQAGGSLRLSCAASGNTFRSYAMGWYRQAPGKERELVAAISSTGNTYYADSVKGRFTISRDNAKNTVYLQMNSLKPEDTAVYYCAASKWRRADYYYWGQGTQVTVSS | high polyreactivity
QVQLVESGGGLVQAGGRLRLSCAASGTIFPLNAMGWYRQAPGKERELVATISSGGSTYYADSVKGRFTISRDNAKNTVYLQMNSLKPEFTAVYYCAADSWVQFEYWGQGTQVTVSS | low polyreactivity
QVQLVESGGGLVQAGGSLRLSCAASGSIFTAYAMGWYRQAPGKERELVAAITTSGDSTYYADSVKGRFTISRDNAKNTVYLQMNSLKPEDTAVYYCAAEYYSYRITTYDYWGQGTQVTVSS | high polyreactivity
QVQLVESGGGLVQAGGSLRLSCAASGRIFKYYAMGWYRQAPGKERELVAAITYSGGSTYADSVKGRFTISRDNAKNTVYLQMNSLKPEDTAVYYCAVARRSRVVSSIRGDYWGQGTQVTVSS | high polyreactivity
QVQLVESGGGLVQAGGSLRLSCAASGRTFGQYAMGWYRQAPGKERELVAAITGGGSTNYADSVKGRFTISRDNAKNTVYLHMNSLKPEDTAVYYCAAKARSYWYPRLYIYEGDYWGQGTQVTVSS | low polyreactivity
QVQLVESGGGLVQAGGSLRLSCAASGRIFVYNVMGWSRQSPGKERELVAAISWGTGSTYADSVKGRFTISRDNAKNTVYLQMNSLKPEDTAVYYCAADWLSTKNDYWGQGTQVTVSS | low polyreactivity
QVQLVESGGGLVQAGGSLRLSCAASGRTFAINARGWYRQAPGKERELVAAITTSGGGTYYADSVKGRFTISRDNAKNTVYLQMNSLKPEDTAVYYCAAGTSYYTYRFYAWDYDYWGQGTQVTVSS | low polyreactivity
QVQLVESGGGLVQAGGSLRLSCAASGSIFHYYAMGWYRQAPGKERELVAAISSVGSTYYADSVKGRFTISRDNAKNTVYLQINSLKPEDTAVYYCAAEAYAKRYVDRYSWYYYWGQGTQVTVSS | high polyreactivity
QVQLVESGGGLVQAGGSLRLSCAASGRTFEHYAMGWYRQAPGKEREFVAVIDSSDGSTYYADSVKGRFTISRDNAKNTVYLQMNSLKPEDTAVYYCLGGYYYLQYDYWGQGTQVTVSS | low polyreactivity
QDQLVESGGGLVQAGGSLRLSCAASGRTFTHYALGWYRQAPGKERELVAAISWSGGITYYADSVKGRFTISRDYAKNTVYLQMNSLKPEDTAVYYCAAEHYFSGYYYWGQGTQVTVSS | high polyreactivity
